Source: patent US20240270821A1, “GIP/GLP1/GCG TRI-RECEPTOR AGONISTS AND USES THEREOF” (priority 2023, published 2024)
Changes are numbered by the printed parent chain. Starred links: 1 amine or outer side, 2 acyl side, 3 side chain; linkers in the order of their positions; H or OH if unused. Non-standard residues stand in square brackets, D forms with d. Groups on a side chain read outwards from the residue. No end group written: not given here. *: point of attachment. C20 diacid = O=C(O)CCCCCCCCCCCCCCCCCCC(=O)*; Phe(4-CN) = N#Cc1ccc(C[C@H](N)C(=O)O)cc1; αMePhe(2-F) = C[C@](N)(Cc1ccccc1F)C(=O)O; γGlu = O=C(O)[C@H](CCC(=O)[*:2])N[*:1]; NMeY = CN[C@@H](Cc1ccc(O)cc1)C(=O)O; αMeF = C[C@](N)(Cc1ccccc1)C(=O)O; αMeL = CC(C)C[C@](C)(N)C(=O)O; Orn = NCCC[C@H](N)C(=O)O; AEEA = NCCOCCOCC(=O)O; Aib = CC(C)(N)C(=O)O

B1: Example 323 (peptide)
chain: Y[Aib]QGTFTSDYSI[αMeL]LDKIAAK([AEEA-AEEA-γGlu-C20 diacid])QFVQWLIE[Aib]GPSSGEPPPSEG-NH2
modifications: ends and bridges not checked
B2: Example 1 (peptide)
chain: YXQGTFTSDFSKXLDKKAQXAFIEYLLAGGPSSGEPPPSEG
modifications: Aib, αMeL; acylated Lys; C-terminal amide; synthetic construct; SITE 2: note = 2-Aminoisobutyric Acid; SITE 13: note = alpha-methyl-leucine; SITE 17: note = Lysine is chemically modified through conjugation of the epsilon-amino group of the Lysine side chain with (2-[2-(2-Amino-ethoxy)-ethoxy]-acetyl)-(gamma-Glu)-CO-(CH2) 18-CO2H; SITE 20: n
B3: Example 5 (peptide)
chain: B2 chain with E40S, G41E
modifications: acylated Lys, C-terminal amide, non-natural residues; synthetic construct; SITE 2: note = 2-Aminoisobutyric Acid; SITE 13: note = alpha-methyl-leucine; SITE 17: note = Lysine is chemically modified through conjugation of the epsilon-amino group of the Lysine side chain with (2-[2-(2-Amino-ethoxy)-ethoxy]-acetyl)2-(gamma-Glu)-CO-(CH2 )18-CO2H; SITE 20:
B4: Example 4 (peptide)
chain: B2 chain with G41E
modifications: Aib, alpha-methyl-Leu, acylated Lys, C-terminal amide; synthetic construct; SITE 2: note = 2-Aminoisobutyric Acid; SITE 13: note = alpha-methyl-leucine; SITE 17: note = Lysine is chemically modified through conjugation of the epsilon-amino group of the Lysine side chain with (2-[2-(2-Amino-ethoxy)-ethoxy]-acetyl)-(gamma-Glu)-CO-(CH2) 18-CO2H; SITE 20: n
B5: Example 2 (peptide)
chain: B2 chain with E40G, G41E
modifications: Aib, αMeL; acylated Lys; C-terminal amide; synthetic construct; SITE 2: note = 2-Aminoisobutyric Acid; SITE 13: note = alpha-methyl-leucine; SITE 17: note = Lysine is chemically modified through conjugation of the epsilon-amino group of the Lysine side chain with (2-[2-(2-Amino-ethoxy)-ethoxy]-acetyl)-(gamma-Glu)-CO-(CH2) 18-CO2H; SITE 20: n
B6: Example 3 (peptide)
chain: B2 chain with E40S, G41E
modifications: Aib, αMeL; acylated Lys; C-terminal amide; synthetic construct; SITE 2: note = 2-Aminoisobutyric Acid; SITE 13: note = alpha-methyl-leucine; SITE 17: note = Lysine is chemically modified through conjugation of the epsilon-amino group of the Lysine side chain with (2-[2-(2-Amino-ethoxy)-ethoxy]-acetyl)-(gamma-Glu)-CO-(CH2) 18-CO2H; SITE 20: n
B7: Example 321 (peptide)
chain: Y[Aib]QGT[αMePhe(2-F)]TSD[Phe(4-CN)]SILLDKQAQK([AEEA-AEEA-γGlu-C20 diacid])AFIEYLLEGGPSSGEPPPSEG-NH2

Tests used:
[1] = target: T1, hGLP-1R (Homo sapiens, UniProt P43220); assay: GLP-1R CHO cell β-arrestin recruitment assay; assay type: cell-based; set-up: host or cells: CHO-K1 (PathHunter, assay-ready frozen cells); conditions: for EC50: CHO-K1 PathHunter, β-arrestin-2, 0.1% casein, read-out: hGLP1R β-arrestin Rel EC50; for % Stimulation Max: normalized to GLP-1(7-36) as maximum control;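 for all read-outs here: luminescence read after 90 min peptide exposure at 37 °C and a further 60 min with detection reagent at room temperature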
Target sequence in this assay (P43220 24-463): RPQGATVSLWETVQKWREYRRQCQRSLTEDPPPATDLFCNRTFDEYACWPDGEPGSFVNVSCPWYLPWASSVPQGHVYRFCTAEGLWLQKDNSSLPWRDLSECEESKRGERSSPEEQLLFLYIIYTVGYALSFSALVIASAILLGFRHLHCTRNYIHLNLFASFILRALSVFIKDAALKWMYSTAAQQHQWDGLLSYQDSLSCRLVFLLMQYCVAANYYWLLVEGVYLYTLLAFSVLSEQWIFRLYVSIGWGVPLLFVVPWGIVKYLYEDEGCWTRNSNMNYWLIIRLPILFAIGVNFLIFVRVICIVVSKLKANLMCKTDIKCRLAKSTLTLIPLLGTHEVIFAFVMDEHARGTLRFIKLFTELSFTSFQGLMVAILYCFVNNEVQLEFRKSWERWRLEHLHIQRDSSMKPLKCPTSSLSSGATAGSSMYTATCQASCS
Target sequence in this assay (P32121 whole entry partner): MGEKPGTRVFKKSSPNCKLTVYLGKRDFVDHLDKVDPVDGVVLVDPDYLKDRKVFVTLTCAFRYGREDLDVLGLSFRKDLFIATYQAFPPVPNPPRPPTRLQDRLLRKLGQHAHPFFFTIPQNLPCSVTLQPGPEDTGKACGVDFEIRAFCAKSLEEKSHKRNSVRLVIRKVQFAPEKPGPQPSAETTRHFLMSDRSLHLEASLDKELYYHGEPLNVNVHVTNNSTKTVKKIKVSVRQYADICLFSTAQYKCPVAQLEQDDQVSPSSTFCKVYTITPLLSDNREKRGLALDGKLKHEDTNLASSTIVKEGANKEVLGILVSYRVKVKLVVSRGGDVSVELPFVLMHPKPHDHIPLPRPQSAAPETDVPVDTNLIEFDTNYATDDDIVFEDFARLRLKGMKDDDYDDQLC

[2] = target: T2, hGIPR (Homo sapiens, UniProt P48546); assay: Functional cAMP activity in the presence of 1% HSA; assay type: cell-based; conditions: read-out: cAMP Rel EC50, hGIPR
T2 sequence (P48546 22-466): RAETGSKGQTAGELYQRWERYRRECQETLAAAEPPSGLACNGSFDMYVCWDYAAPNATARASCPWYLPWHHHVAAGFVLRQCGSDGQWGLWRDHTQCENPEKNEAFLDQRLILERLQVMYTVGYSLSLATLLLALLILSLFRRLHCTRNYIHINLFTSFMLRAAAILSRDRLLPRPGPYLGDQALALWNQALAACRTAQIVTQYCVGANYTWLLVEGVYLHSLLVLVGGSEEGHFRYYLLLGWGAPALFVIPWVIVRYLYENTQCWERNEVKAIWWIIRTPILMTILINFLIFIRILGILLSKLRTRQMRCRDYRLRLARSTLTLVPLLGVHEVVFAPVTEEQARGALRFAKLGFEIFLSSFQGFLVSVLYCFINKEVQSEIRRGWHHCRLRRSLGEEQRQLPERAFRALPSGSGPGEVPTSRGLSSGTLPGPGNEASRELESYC

[3] = target: human GcgR (Homo sapiens, UniProt P47871); assay: Functional cAMP activity in the presence of 1% HSA; assay type: cell-based; conditions: read-out: cAMP Rel EC50, hGcgR
Chain of human GcgR (P47871 26-477): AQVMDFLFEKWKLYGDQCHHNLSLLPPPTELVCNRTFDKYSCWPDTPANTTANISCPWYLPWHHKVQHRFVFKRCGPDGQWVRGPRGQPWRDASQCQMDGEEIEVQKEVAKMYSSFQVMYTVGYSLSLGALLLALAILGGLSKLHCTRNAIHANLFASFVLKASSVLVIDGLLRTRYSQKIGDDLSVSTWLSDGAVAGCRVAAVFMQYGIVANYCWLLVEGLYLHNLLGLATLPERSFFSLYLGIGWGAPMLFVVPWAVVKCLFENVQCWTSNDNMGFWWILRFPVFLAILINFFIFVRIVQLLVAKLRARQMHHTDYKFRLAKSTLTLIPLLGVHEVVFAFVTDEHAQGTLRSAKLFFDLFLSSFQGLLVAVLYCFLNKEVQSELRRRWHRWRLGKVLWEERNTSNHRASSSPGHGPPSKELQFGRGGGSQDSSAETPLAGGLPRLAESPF

[4] = target: T1, hGLP-1R; assay: Functional cAMP activation in the presence of 0.1% casein (no HSA); assay type: cell-based; conditions: in the presence of 0.1% casein (no HSA); geometric mean; read-out: Relative cAMP EC50, hGLP-1R;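 for Relative cAMP EC50, hGIPR: intracellular cAMP rise after 30 min at 37 °C read by HTRF against a standard curve, scaled between buffer alone (0%) and top control ligand concentration (100%), four-parameter fit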;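 for Relative cAMP EC50, hGLP-1R: intracellular cAMP rise after 30 min at 37 °C read by HTRF, normalized between buffer only (0%) and maximal control ligand (100%), four-parameter variable-slope fit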;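 for Relative cAMP EC50, hGcgR: intracellular cAMP rise after 30 min at 37 °C, read by HTRF against a cAMP standard curve, scaled from buffer only (0%) to maximal control ligand response (100%)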
Target sequence in this assay (P43220 24-463): as the sequence (P43220 24-463) above

[5] = target: hGcgR (Homo sapiens, UniProt P47871); assay: as above; assay type: cell-based; conditions: in the presence of 0.1% casein (no HSA); geometric mean; read-out: Relative cAMP EC50, hGcgR;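 note: intracellular cAMP rise after 30 min at 37 °C, read by HTRF against a cAMP standard curve, scaled from buffer only (0%) to maximal control ligand response (100%)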
Chain of hGcgR (P47871 26-477): as the sequence (P47871 26-477) above

[6] = target: T1, hGLP-1R; assay: Functional cAMP activity in the presence of 1% HSA; assay type: cell-based; conditions: read-out: cAMP Rel EC50, hGLP-1R
Target sequence in this assay (P43220 24-463): as the sequence (P43220 24-463) above

[7] = target: T2, hGIPR; assay: Functional cAMP activation in the presence of 0.1% casein (no HSA); assay type: cell-based; conditions: in the presence of 0.1% casein (no HSA); geometric mean; read-out: Relative cAMP EC50, hGIPR;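 for Relative cAMP EC50, hGIPR: intracellular cAMP rise after 30 min at 37 °C read by HTRF against a standard curve, scaled between buffer alone (0%) and top control ligand concentration (100%), four-parameter fit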;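 for Relative cAMP EC50, hGLP-1R: intracellular cAMP rise after 30 min at 37 °C read by HTRF, normalized between buffer only (0%) and maximal control ligand (100%), four-parameter variable-slope fit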;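 for Relative cAMP EC50, hGcgR: intracellular cAMP rise after 30 min at 37 °C, read by HTRF against a cAMP standard curve, scaled from buffer only (0%) to maximal control ligand response (100%)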
[8] = target: T1, hGLP-1R; assay: cell-based or functional assay
Target sequence in this assay (P43220 24-463): as above

[9] = target: Pro-Link-tagged Human GLP-1R (human) (UniProt P43220); assay: cell-based or functional assay
Chain of Pro-Link-tagged Human GLP-1R (human) (P43220 24-463): as above

[10] = target: T3, human GIP receptor (human) (UniProt P48546); assay: cell-based or functional assay
T3 sequence (looked up): T2 sequence (P48546 22-466)

[11] = target: human GLP-1R (SNAP-GLP-1R expressed in HEK293 cells) (human) (UniProt P43220); assay: cell-based or functional assay
Chain of human GLP-1R (SNAP-GLP-1R expressed in HEK293 cells) (human) (P43220 24-463): as above

[12] = target: human glucagon receptor (human) (UniProt P47871); assay: cell-based or functional assay
Chain of human glucagon receptor (human) (P47871 26-477): as the sequence (P47871 26-477) above

[13] = target: human GLP1-R (SNAP-GLP-1R expressed in HEK293 cells) (human) (UniProt P43220); assay: cell-based or functional assay
Chain of human GLP1-R (SNAP-GLP-1R expressed in HEK293 cells) (human) (P43220 24-463): as the sequence (P43220 24-463) above

Row | EC50 [1] [nM] | % Stimulation Max [1] [%] | EC50 [2] [nM] | EC50 [3] [nM] | EC50 [4] [nM] | EC50 [5] [nM] | EC50 [6] [nM] | EC50 [7] [nM] | Relative cAMP EC50 [8] [nM] | % Stimulation Max [9] [%] | hGLP1R β-arrestin Rel EC50 [9] [nM] | Relative cAMP EC50 [10] [nM] | Relative cAMP EC50 [12] [nM] | cAMP Rel EC50 (in the presence of 1% HSA) [8] [nM] | cAMP Rel EC50 (in the presence of 1% HSA) [10] [nM] | GLP1R Internalization EC50 [13] [nM] | Internalization % TOP [13] [%] | cAMP Rel EC50 (in the presence of 1% HSA) [12] [nM] | further results | Molecule
1 | 16.9 | 41.4 | 237 | 4950 | 3.15 | 14.2 | 477 | – | – | – | – | – | – | – | – | – | – | – | – | H-Y[Aib]QGTFTSDYSI[αMeL]LDKIAAK([AEEA-AEEA-γGlu-C20 diacid])[Orn]FVQYLIAGGPSSGEPPPSEG-NH2 [Example 308]
2 | 9.21 | 47.8 | 48 | 1720 | 0.551 | 2.31 | 172 | 0.127 | – | – | – | – | – | – | – | – | – | – | – | H-Y[Aib]QGT[αMePhe(2-F)]TSDYSKLLDKIAQK([AEEA-γGlu-C20 diacid])AFIEYLIEGGPSSGEPPPSEG-NH2 [Example 304]
3 | 11.9 | 54.6 | 9.63 | 1740 | 0.994 | 4.01 | 295 | 0.0587 | – | – | – | – | – | – | – | – | – | – | – | H-Y[Aib]QGT[αMePhe(2-F)]TSDYSILLDKIAQK([AEEA-γGlu-C20 diacid])AFIEYLLEGGPSSGEPPPSEG-NH2 [Example 293]
4 | 6.72 | 47.2 | 424 | 3910 | 0.808 | 9.28 | 251 | 0.32 | – | – | – | – | – | – | – | – | – | – | – | H-Y[Aib]QGT[αMePhe(2-F)]TSDYSKLLDKQAQK([AEEA-γGlu-C20 diacid])QFIEYLIEGGPSSGEPPPSEG-NH2 [Example 309]
5 | 19.2 | 39.6 | 26.1 | 2500 | 3.36 | 2.08 | 1080 | 0.113 | – | – | – | – | – | – | – | – | – | – | – | H-Y[Aib]QGT[αMePhe(2-F)]TSDYSKILDKIAQK([AEEA-γGlu-C20 diacid])AFIEYLLEGGPSSGEPPPSEG-NH2 [Example 311]
6 | 11.2 | 56.6 | 91.8 | 1370 | 0.621 | 4.47 | 73.6 | 0.7 | – | – | – | – | – | – | – | – | – | – | – | H-[NMeY][Aib]QGT[αMeF]TSDYSILLDKQAAK([AEEA-AEEA-γGlu-C20 diacid])AFVQWLIEGGPSSGEPPPSEG-NH2 [Example 302]
7 | 23.3 | 58.3 | 92.4 | 1500 | 1.48 | 6.73 | 415 | 1 | – | – | – | – | – | – | – | – | – | – | – | H-Y[Aib]QGTFTSDYSI[αMeL]LDKQAAK([AEEA-AEEA-γGlu-C20 diacid])AFVEWLLAGGPSSGEPPPSEG-NH2 [Example 305]
8 | – | – | – | – | – | – | – | – | 1.56 | 44 | 10.8 | 0.232 | 6.04 | – | – | – | – | – | cAMP Rel EC50 (1% HSA) [8]: 293 nM; cAMP Rel EC50 (1% HSA) [10]: 37.7 nM; GLP1R Internalization EC50 [11]: 28.2 nM; Internalization % TOP [11]: 84.8%; cAMP Rel EC50 (1% HSA) [12]: 1440 nM | B1
9 | – | – | – | – | – | – | – | – | 1.42 | 17.3 | > 10000 | 0.207 | 3.72 | 524 | 73.9 | 44.7 | 69.1 | 1690 | – | B2
10 | – | – | – | – | – | – | – | – | 2.37 | 18.4 | > 10000 | 0.177 | 7.4 | 675 | 32.5 | 53.4 | 75 | 2670 | – | B3
11 | – | – | – | – | – | – | – | – | 1.66 | 15.8 | 23.2 | 0.192 | 3.2 | 869 | 62.3 | 49.1 | 67.8 | 1580 | – | B4
12 | – | – | – | – | – | – | – | – | 1.65 | 12.3 | > 10000 | 0.207 | 4.29 | 631 | 75.5 | 49.5 | 66.8 | 1630 | – | B5
13 | – | – | – | – | – | – | – | – | 1.67 | 16.5 | > 10000 | 0.217 | 3.8 | 546 | 48.1 | 49.2 | 69.7 | 1590 | – | B6
14 | – | – | – | – | – | – | – | – | 0.798 | 90.1 | 8.78 | 0.0912 | 4.49 | – | – | – | – | – | cAMP Rel EC50 (1% HSA) [8]: 110 nM; cAMP Rel EC50 (1% HSA) [10]: 13 nM; GLP1R Internalization EC50 [11]: 27.1 nM; Internalization % TOP [11]: 92.8%; cAMP Rel EC50 (1% HSA) [12]: 836 nM | B7
